Experimental findings from patent publication US20250388666A1 (BRIGHAM AND WOMEN S HOSPITAL, published 2025) are described below.

One assay has as its target T1, human GST-CEACAM1 (human, UniProt P13688 35-141, limits assumed).
T1 construct: printed both as GST-CEACAM1 and CEACAM1-GST; also called human CEACAM1-GST protein; hCEACAM1-GST; not shown: GST tag
T1 sequence: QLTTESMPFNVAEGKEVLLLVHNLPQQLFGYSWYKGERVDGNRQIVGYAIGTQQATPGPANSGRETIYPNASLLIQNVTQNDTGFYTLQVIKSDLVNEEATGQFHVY
The assay can be described thus: competition ELISA vs murine parent antibody. As for the experimental part: The binding of the purified chimeric antibody to human CEACAM1 was assessed in a competition ELISA assay. Nunc Immuno MaxiSorp 96 well flat bottom microtitre plates were pre-coated with 1 μg/ml human GST-CEACAM1 in 1×PBS, overnight at 4° C. The following day the plates were blocked for 1 hour at room temperature with 2% BSA/PBS before washing 2× with PBS/0.05% Tween 20 pH 7.4.
The binding of the purified antibodies to human CEACAM1 were assessed in a competition ELISA assay as described above. The ability of each variant to compete against the murine parental antibody for binding to the GST-CEACAM1 was compared to that of the chimeric antibody (VH0/Vκ0), which was included on each plate.

The target in assay [1] is T2, CEACAM1-HIS (Sino Biologics Inc.) (Homo sapiens (Human), UniProt P13688 35-428).
T2 construct: bought; not shown: His tag
T2 sequence: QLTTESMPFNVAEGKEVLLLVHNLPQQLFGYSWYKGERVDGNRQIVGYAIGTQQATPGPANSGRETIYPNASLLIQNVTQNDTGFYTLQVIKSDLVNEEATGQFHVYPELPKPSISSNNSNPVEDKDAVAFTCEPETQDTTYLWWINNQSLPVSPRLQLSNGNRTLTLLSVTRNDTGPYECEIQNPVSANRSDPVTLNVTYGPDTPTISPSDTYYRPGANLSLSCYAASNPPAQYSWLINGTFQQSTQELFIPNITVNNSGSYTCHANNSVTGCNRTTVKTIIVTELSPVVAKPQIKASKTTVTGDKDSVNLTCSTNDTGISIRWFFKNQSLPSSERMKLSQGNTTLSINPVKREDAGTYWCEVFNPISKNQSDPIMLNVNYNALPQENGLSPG
The assay can be described thus: SPR single-cycle, IgG on Protein A. How it is done:
(§1) As an alternative approach to assess the binding of the antibody combinations and the control antibodies to CEACAM1, a kinetic analysis was performed on a Biacore T200 running Biacore T200 Evaluation Software V2.0.1. All experiments were run at 25° C. with HBS-P+ running buffer (pH 7.4).
In order to assess the binding of all Composite Human Antibody™ variants, single cycle kinetic analysis was performed on the supernatants of all the transiently transfected HEK EBNA cells. Purified chimeric antibody and purified chimeric antibody spiked into HEK EBNA media were used as positive controls. Supernatants were diluted in HBS-P+ to a concentration of 1 μg/mL (as determined by an IgG quantitation ELISA). At the start of each cycle, antibodies were loaded onto Fc2, Fc3 and Fc4 of a Protein A chip and captured at a flow rate of 8 μL/min to give an RU of ˜100. The surface was then allowed to stabilize. Single cycle kinetic data was obtained at a flow rate of […] to minimize any potential mass transfer effects. Multiple repeats of the chimeric antibody were performed to check the stability of the surface and analyte over the kinetic cycles. The signal from the reference channel Fc1 (no antibody) was subtracted from that of Fc2, Fc3 and Fc4 to correct for differences in non-specific binding to a reference surface. A 5 point 2-fold dilution range from 3.125 to 50 nM CEACAM1 without regeneration between each concentration was used. The association phase for the 5 injections of increasing concentrations of CEACAM1 was monitored for 150 seconds and a single dissociation phase was measured for 150 seconds following the last injection of CEACAM1. Regeneration of the Protein A was conducted using 2 injections of 10 mM glycine-HCL pH 1.5 followed by a stabilization period of 500 seconds.
In the raw sensorgrams for the single cycle kinetics, the signal from each antibody blank run (no CEACAM1) was subtracted to correct for differences in surface stability.

Assay [2] addresses T2, CEACAM1-HIS (Sino Biologics Inc.). The assay can be described thus: SPR multi-cycle, IgG on Protein A. As for the experimental part:
as §1
For multi-cycle kinetic analysis purified antibody was immobilized at a protein concentration of 1 μg/mL in HBS-P+. At the start of each cycle, antibody was captured on Protein A to give an RU of ˜100 and the surface allowed to stabilize. Kinetic data was obtained at a flow rate of 35 μl/min to minimize any potential mass transfer effects. Multiple repeats of the blank (no CEACAM1) and a repeat of a single concentration of the analyte were programmed into the kinetic run in order to check the stability of both the surface and analyte over the kinetic cycles. For kinetic analysis, a 2-fold dilution series was selected from 100 to 1.5625 nM CEACAM1. The association phase of CEACAM1 was monitored initially for 180 seconds. In the subsequent experiment a longer association time (275 seconds) was used in order to better reach steady state. The dissociation phase was measured for 250 seconds. Regeneration of the Protein A surface was conducted using 2 injections of 10 mM glycine-HCL pH 1.5 at the end of each cycle.
The signal from the reference channel Fc1 was subtracted from that of Fc2, Fc3 and Fc4 to correct for differences in non-specific binding to a reference surface, a global Rmax parameter was used in the 1-to-1 binding model. The relative KD compared to the chimeric parental antibody was calculated by dividing the KD of the Composite Human Antibody™ variants by that of the chimeric parental antibody on the same chip.

For assay [3] the target is unchanged. The assay can be described thus: SPR multi-cycle.
Assay [4] deals with T3, CEACAM1 (Sino Biological) (human, UniProt P13688 35-428, limits assumed).
T3 construct: may be the same as CEACAM1-HIS; also called hCEACAM1; biotinylated soluble CEACAM1
T3 sequence: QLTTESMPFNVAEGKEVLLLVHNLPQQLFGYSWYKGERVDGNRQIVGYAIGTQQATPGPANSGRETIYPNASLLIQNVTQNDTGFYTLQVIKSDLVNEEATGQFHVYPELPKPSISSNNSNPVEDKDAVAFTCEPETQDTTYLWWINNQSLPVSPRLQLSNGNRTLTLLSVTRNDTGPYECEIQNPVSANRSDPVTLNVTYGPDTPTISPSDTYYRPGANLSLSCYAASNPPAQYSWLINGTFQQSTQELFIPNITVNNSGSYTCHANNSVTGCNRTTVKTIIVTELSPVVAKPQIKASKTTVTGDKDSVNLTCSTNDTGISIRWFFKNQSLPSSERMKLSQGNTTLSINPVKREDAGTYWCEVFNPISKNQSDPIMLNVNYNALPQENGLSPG
The assay can be described thus: SPR single-cycle. Put shortly: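 Humanized affinity-matured IgGs from crude supernatants captured on Protein A to ~100 RU, with CEACAM1 analyte injected at 25–100 nM (three-point, two-fold) in HBS-P+ without regeneration. 200 s association per injection, 300 s single dissociation; reference-channel and blank subtracted.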

B1: VH1/Vκ1 (antibody, V domains shown)
VH: EVQLLESGGGLVQPGGSLRLSCAASGFIFSSHGMSWVRQAPGKGLEWVATISSGGTYTYYPDSVKGRFTISRDNSKNTLYLQMNSLKAEDTAMYYCARHDFDYDAAWFAYWGQGTLVTVSS
VL: QIVLTQSPALLSLSPGERATMSCSANSSVSYMYWYRQKPGQAPKPWIYLTSNLASGVPARFSGSGSGTDYTLTISSLEAEDFATYYCQQWSSNPPTFGQGTKLEIK
The term Kd denotes the free concentration of one partner at which half of the binding sites on the other are occupied at equilibrium, for simple one-to-one binding. Usually koff stands for the rate constant with which the complex falls apart. The term kon denotes a measure of how fast the partners come together. Turning to B1, the “average relative IC50 (normalized to chimeric antibody)” value in the assay with human GST-CEACAM1 is 1.5 ratio. Also, in assay [1], the Kd was 93.4 nM and the “relative KD to chimeric parental antibody” value worked out at 2.2 ratio. Further, in assay [2], the equilibrium dissociation constant (Kd) was found to be 38.1 nM, the off-rate constant (koff) is 0.00384 s⁻¹, the kon came to 101000 M⁻¹ s⁻¹ and the “relative KD to chimeric parental antibody” value came out at 1.4 ratio. Further, in assay [3], the “average relative KD to chimeric parental antibody” value was 1.45 ratio, the “relative KD to chimeric parental antibody expt 1” value was determined as 1.5 ratio and the “relative KD to chimeric parental antibody expt 2” value was found to be 1.4 ratio.

B2: VH3/Vκ2 (antibody, V domains shown)
VH: EVQLLESGGGLVQPGGSLRLSCAASGFIFSSHGMSWVRQAPGKGLEWVATISSGGTYTYYADSVKGRFTISRDNSKNTLYLQMNSLRAEDTAMYYCARHDFDYDAAWFAYWGQGTLVTVSS
VL: EIVLTQSPATLSLSPGERATLSCRANSSVSYMYWYQQKPGQAPRPWIYLTSNRATGVPARFSGSGSGTDYTLTISSLEPEDFATYYCQQWSSNPPTFGQGTKLEIK
As to B2, in assay [1], the Kd is 265 nM and the “relative KD to chimeric parental antibody” value worked out at 6.1 ratio.

B3: VH4/Vκ2 (antibody, V domains shown)
VH: EVQLLESGGGLVQPGGSLRLSCAASGFIFSSHGMSWVRQAPGKGLEWVSTISSGGTYTYYADSVKGRFTISRDNSKNTLYLQMNSLRAEDTAVYYCARHDFDYDAAWFAYWGQGTLVTVSS
VL: EIVLTQSPATLSLSPGERATLSCRANSSVSYMYWYQQKPGQAPRPWIYLTSNRATGVPARFSGSGSGTDYTLTISSLEPEDFATYYCQQWSSNPPTFGQGTKLEIK
For the molecule B3, in assay [1], the dissociation constant Kd came out at 3950 nM and the “relative KD to chimeric parental antibody” value was determined as 91.4 ratio.

B4: VH3/Vκ1 (antibody, V domains shown)
VH: EVQLLESGGGLVQPGGSLRLSCAASGFIFSSHGMSWVRQAPGKGLEWVATISSGGTYTYYADSVKGRFTISRDNSKNTLYLQMNSLRAEDTAMYYCARHDFDYDAAWFAYWGQGTLVTVSS
VL: QIVLTQSPALLSLSPGERATMSCSANSSVSYMYWYRQKPGQAPKPWIYLTSNLASGVPARFSGSGSGTDYTLTISSLEAEDFATYYCQQWSSNPPTFGQGTKLEIK
For B4, in assay [1], the equilibrium dissociation constant (Kd) amounted to 1500 nM and the “relative KD to chimeric parental antibody” value came out at 34.7 ratio.

B5: VH4/Vκ1 (antibody, V domains shown)
VH: EVQLLESGGGLVQPGGSLRLSCAASGFIFSSHGMSWVRQAPGKGLEWVSTISSGGTYTYYADSVKGRFTISRDNSKNTLYLQMNSLRAEDTAVYYCARHDFDYDAAWFAYWGQGTLVTVSS
VL: QIVLTQSPALLSLSPGERATMSCSANSSVSYMYWYRQKPGQAPKPWIYLTSNLASGVPARFSGSGSGTDYTLTISSLEAEDFATYYCQQWSSNPPTFGQGTKLEIK
As to B5, in assay [1], the dissociation constant Kd came out at 243 nM and the “relative KD to chimeric parental antibody” value came to 5.6 ratio.

B6: VH0/Vκ1 (antibody, V domains shown)
VH: EVQLVESGGDLVKPGGSLKLACAASGFIFSSHGMSWVRQTPDKRLEWVATISSGGTYTYYPDSVKGRFTISRDNDKNTLYLQMNSLKSEDTAMYYCARHDFDYDAAWFAYWGQGTLVTVSS
VL: QIVLTQSPALLSLSPGERATMSCSANSSVSYMYWYRQKPGQAPKPWIYLTSNLASGVPARFSGSGSGTDYTLTISSLEAEDFATYYCQQWSSNPPTFGQGTKLEIK
With B6, the “average relative IC50 (normalized to chimeric antibody)” value in the assay with human GST-CEACAM1 stood at 2.5 ratio. Besides, in assay [1], the Kd was 56.1 nM and the “relative KD to chimeric parental antibody” value is 1.3 ratio.

B7: Parent VH/L19 (antibody, IgG4, V domains shown)
VH: EVQLLESGGGLVQPGGSLRLSCAASGFSFSDYYLYWVRQAPGKGLEWVATISVGGGQTSYADSVKGRFTISRDNSKNTLYLQMNSLRAEDTAMYYCTRGLYYGPAWFAYWGQGTLVTVSS
VL: DIVMTQSPDSLAVSLGERATINCKSSQSLLNSANQKNYLAWYQQKPGQPPKLLIYFASTRESGVPDRFSGSGSGTDFTLTISSLQAEDVAVYYCQSHIYPNFTFGGGTKVEIK
notes: IgG4 S241P, kappa
Turning to B7, in assay [4], the Kd came to 77 nM and the “fold better than Parent (KD)” value is 2.08 fold.

B8: VH1/Vκ0 (antibody, IgG4, V domains shown)
VH: EVQLLESGGGLVQPGGSLRLSCAASGFSFSDYYLYWVRQAPGKGLEWVATISVGGGNTSYPDSVKGRFTISRDNSKNTLYLQMNSLRAEDTAMYYCTRGLYYGPAWFAYWGQGTLVTVSS
VL: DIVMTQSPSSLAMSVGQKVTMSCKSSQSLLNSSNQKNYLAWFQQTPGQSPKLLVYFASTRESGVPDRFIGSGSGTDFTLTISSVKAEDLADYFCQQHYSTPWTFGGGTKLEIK
notes: IgG4 (S241P), kappa
Consider B8, for which the “average relative IC50 (normalized to chimeric antibody)” value with human GST-CEACAM1 is 1 ratio. In assay [1], the dissociation constant Kd is 76.6 nM and the “relative KD to chimeric parental antibody” value came to 1.8 ratio.

B9: Parent VH/L20 (antibody, IgG4, V domains shown)
VH: EVQLLESGGGLVQPGGSLRLSCAASGFSFSDYYLYWVRQAPGKGLEWVATISVGGGQTSYADSVKGRFTISRDNSKNTLYLQMNSLRAEDTAMYYCTRGLYYGPAWFAYWGQGTLVTVSS
VL: DIVMTQSPDSLAVSLGERATINCKSSQSLLNSANQKNYLAWYQQKPGQPPKLLIYFASTRESGVPDRFSGSGSGTDFTLTISSLQAEDVAVYYCQSHFPYPLTFGGGTKVEIK
notes: IgG4 S241P, kappa
For B9, in assay [4], binding was characterised by a dissociation constant (Kd) of 87 nM and the “fold better than Parent (KD)” value is 1.83 fold.

B10: VH2/Vκ4 (antibody, IgG4, V domains shown)
VH: EVQLLESGGGLVQPGGSLRLSCAASGFSFSDYYLYWVRQAPGKGLEWVATISVGGGNTSYADSVKGRFTISRDNSKNTLYLQMNSLRAEDTAMYYCTRGLYYGPAWFAYWGQGTLVTVSS
VL: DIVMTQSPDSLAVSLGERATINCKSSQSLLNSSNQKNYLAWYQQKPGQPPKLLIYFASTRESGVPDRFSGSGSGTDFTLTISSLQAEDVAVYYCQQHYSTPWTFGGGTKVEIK
notes: IgG4 (S241P), kappa
As for B10, the “average relative IC50 (normalized to chimeric antibody)” value in the assay with human GST-CEACAM1 amounted to 7.2 ratio. Further, in assay [1], the Kd turned out to be 77.8 nM and the “relative KD to chimeric parental antibody” value stood at 1.8 ratio.
